Assay results reported in patent publication US20160287732A1, “TUMOR THERAPY BY BISPECIFIC ANTIBODY PRETARGETING” (IMMUNOMEDICS, INC., priority 2015, published 2016).
Read-outs that look alike come from different tables or passages of the source. Numbered stars: 1 amine (or outer) side, 2 acyl side, 3 side chain; on linkers, the order of the positions; unused ones are H or OH. Square brackets hold non-standard residues; d marks the D form. Side chains are listed from the residue outwards. Ends that are not written are not given here. Peptide text beside a SMILES is read from it. * marks the point of attachment. X1 = CCc1c2c(nc3ccc(O)cc13)-c1cc3c(c(=O)n1C2)COC(=O)[C@@]3(CC)OC(=O)*; DOTA = O=C(O)CN1CCN(CC(=O)O)CCN(CC(=O)*)CCN(CC(=O)O)CC1; NH(2-(imidazol-4-yl)ethyl) = c1ncc(CCN*)[nH]1; Suc = O=C(CCC(=O)[*:2])[*:1]

Experiments:
[1] = tested on: LS174 human colon cancer cell line; experiment: ^111In IMP 453 biodistribution in scLS174T tumor-bearing nude mice, with or without TF2 pretargeting; assay type: in vivo; settings: for Tissue uptake, Kidney / Tissue uptake, Tumor: 3 Hr
Text: (§1) The higher uptake in the kidneys of pretargeted mice is probably due the presence of bispecific antibody in the blood or kidney. […] In the absence of TF2, there was little uptake of labeled peptide into the tumor (Table 5).

[2] = as above; assay type: in vivo; settings: nude, mouse
Text: as §1

s.c. LS174T xenografts = experiment: in vivo; design: species or system mice; settings: mouse
Protocol: (§2) IMP288 was labeled with ^213Bi and in vitro binding characteristics (IC50, Kd, internalization) were compared with those of ^177Lu-IMP288. Tumor targeting of ^213Bi-IMP288 was studied in mice with s.c. LS174T xenografts that were pretargeted with TF2 bispecific antibody. Finally, the effect of ^213Bi-IMP288 (2.5-14 MBq) on the growth of LS174T tumors was assessed.

in vivo = experiment: in vivo; design: species or system mice; settings: mouse
Protocol: as §2

LS174T tumors = experiment: Effect of ^213Bi-IMP288 on growth of TF2-pretargeted LS174T tumors; assay type: in vivo, nude mice; settings: single injection; 5 nmol TF2 then 0.28 nmol ^213Bi-IMP288
Protocol: FIG. 5. Growth curves of subcutaneous LS174T xenografts in nude mice. Mice were injected with 5 nmol TF2 bispecific antibody, followed by a single injection of 0.28 nmol ^213Bi-IMP288 or PBS.
as §2

PKA = settings: cited from earlier work
TF2 (human) = experiment: in vitro binding assay, format and partner not described; TF2 (anti-CEA x anti-HSG) is the pretargeting antibody of the example
[3] = tested on: human colorectal adenocarcinoma xenografts (LS 174T); experiment: Pretargeting study with ^125I-TF2 and ^99mTc-IMP-245 in mice bearing s.c. LS 174T xenografts; assay type: in vivo, female athymic nude mice; settings: pretargeted with TF2
Protocol: A pretargeting study was performed with TF2 in female athymic nude mice bearing s.c. human colorectal adenocarcinoma xenografts (LS 174T). Cells were expanded in tissue culture until enough cells had been grown to inject 55 mice s.c. with 1×10^7 cells per mouse. After one week, tumors were measured and mice assigned to groups of 5 mice per time-point. The mean tumor size at the start of this study was 0.105±0.068 cm^3. Twenty mice were injected with 80 μg ^125I-TF2 (500 pmoles, 2 μCi) and 16 h later administered ^99mTc-IMP-245 (40 μCi, 92 ng, 50 pmoles). The mice were sacrificed and necropsied at 0.5, 1, 4, and 24 h post-peptide injection. In addition, 3 mice of the 24 h time-point groups were imaged on a γ-camera at 1, 4, and 24 h post-injection. As a control, 3 additional mice received only ^99mTc-IMP-245 (no pretargeting) and were imaged at 1, 4, and 24 h post-injection, before being necropsied after the 24 h imaging session. Tumor as well as various tissues were removed and placed in a γ-counter to determine % ID/g in tissue at each time-point.

[4] = target: DDD of the RII form of PKA (Homo sapiens, UniProt P13861); settings: cited from earlier work
RIIα dimers = RIIα dimers (Homo sapiens, UniProt P13861); settings: read-out: Affinity / binding constant; cited from earlier work
RII isoform of PKA = RII isoform of PKA (Homo sapiens, UniProt P13861); settings: cited from earlier work
[5] = blood, pretargeted with TF2, read-out: Tissue uptake, Blood
[6] = kidney, pretargeted with TF2, read-out: Tissue uptake, Kidney
[7] = large intestine, pretargeted with TF2, read-out: Tissue uptake, Lg. Int.
[8] = liver, pretargeted with TF2, read-out: Tissue uptake, Liver
[9] = lung, pretargeted with TF2, read-out: Tissue uptake, Lung
[10] = small intestine, pretargeted with TF2, read-out: Tissue uptake, Sm. Int.
[11] = spleen, pretargeted with TF2, read-out: Tissue uptake, Spleen
[12] = stomach, pretargeted with TF2, read-out: Tissue uptake, Stomach
[13] = tumor, pretargeted with TF2, read-out: Tissue uptake, Tumor

DDD of the RII form of PKA, sequence (P13861 whole entry): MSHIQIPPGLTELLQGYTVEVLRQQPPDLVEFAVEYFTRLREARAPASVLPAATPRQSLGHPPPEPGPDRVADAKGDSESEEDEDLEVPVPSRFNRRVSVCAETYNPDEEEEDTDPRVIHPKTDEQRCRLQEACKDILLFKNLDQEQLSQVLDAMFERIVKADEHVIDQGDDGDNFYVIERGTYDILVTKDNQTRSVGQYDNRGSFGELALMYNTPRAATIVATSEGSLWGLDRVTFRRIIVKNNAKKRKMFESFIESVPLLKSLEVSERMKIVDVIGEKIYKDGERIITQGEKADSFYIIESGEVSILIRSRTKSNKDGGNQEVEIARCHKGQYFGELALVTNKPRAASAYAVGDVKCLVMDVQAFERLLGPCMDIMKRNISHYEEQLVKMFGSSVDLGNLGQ
TF2 (human), sequence (heavy, as listed by the source, chain 1 of 2): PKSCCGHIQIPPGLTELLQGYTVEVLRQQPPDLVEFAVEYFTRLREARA
TF2 (human), sequence (heavy, as listed by the source, chain 2 of 2): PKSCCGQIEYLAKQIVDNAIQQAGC
RII isoform of PKA, sequence (P13861 whole entry, canonical isoform): as the sequence (P13861 whole entry) above
RIIα dimers, sequence (P13861 whole entry, canonical isoform): as the sequence (P13861 whole entry) above

With CCc1c2c(nc3ccc(O)cc13)-c1cc3c(c(=O)n1C2)COC(=O)[C@@]3(CC)OC(=O)SC[C@@H](NC(=O)CN1CCN(CC(=O)O)CCN(CC(=O)O)CCN(CC(=O)O)CC1)C(=O)N[C@H](C)C(=O)N[C@H](CCCCNC(=O)CNC(=O)CCC(=O)NCCc1cnc[nH]1)C(=O)N[C@H](Cc1ccc(O)cc1)C(=O)N[C@H](CCCCNC(=O)CNC(=O)CCC(=O)NCCc1cnc[nH]1)C(N)=O [^111In IMP 453, metal not drawn] ({DOTA}-[dC](X1)[dA][dK]([Gly-Suc-NH(2-(imidazol-4-yl)ethyl)])[dY][dK]([Gly-Suc-NH(2-(imidazol-4-yl)ethyl)])-NH2) the “Tissue uptake, Kidney” value ([1]; pretargeted with TF2) was 21 % ID/g, the “Tissue uptake, Tumor” value ([1]; pretargeted with TF2) was 28 % ID/g and the “Tissue uptake, Kidney” value ([1]; without bsMAb) was 9.97 % ID/g. For the same compound, the “Tissue uptake, Tumor” value ([1]; without bsMAb) was “little uptake”, the “Initial kidney uptake eliminated” value ([1]; by 24 hr, pretargeted with TF2) was 50% and the Route of clearance ([1]; pretargeted with TF2) was “Most of the peptide was cleared by urinary excretion”. For the same compound, the tissue uptake at 3 h [2, 5] was 0.29 ± 0.03 %ID/g, the tissue uptake at 3 h ([2]; blood, without bsMAb, read-out: Tissue uptake, Blood) was 0.24 ± 0.01 %ID/g and the tissue uptake at 24 h [2, 5] was 0.09 ± 0.04 %ID/g. It also gave a tissue uptake at 48 h [2, 5] of 0.04 ± 0.01 %ID/g, a tissue uptake at 3 h [2, 6] of 21.1 ± 4.14 %ID/g and a tissue uptake at 3 h ([2]; kidney, without bsMAb, read-out: Tissue uptake, Kidney) of 9.97 ± 0.94 %ID/g. For the same compound, the tissue uptake at 24 h [2, 6] was 10 ± 2.45 %ID/g, the tissue uptake at 48 h [2, 6] was 7.11 ± 1.17 %ID/g and the tissue uptake at 3 h [2, 7] was 1.23 ± 1.41 %ID/g. It also gave a tissue uptake at 3 h ([2]; large intestine, without bsMAb, read-out: Tissue uptake, Lg. Int.) of 0.52 ± 0.27 %ID/g, a tissue uptake at 24 h [2, 7] of 0.23 ± 0.05 %ID/g and a tissue uptake at 48 h [2, 7] of 0.16 ± 0.07 %ID/g. It also gave a tissue uptake at 3 h [2, 8] of 0.56 ± 0.08 %ID/g, a tissue uptake at 3 h ([2]; liver, without bsMAb, read-out: Tissue uptake, Liver) of 0.37 ± 0.18 %ID/g and a tissue uptake at 24 h [2, 8] of 0.53 ± 0.19 %ID/g. It also gave a tissue uptake at 48 h [2, 8] of 0.36 ± 0.06 %ID/g, a tissue uptake at 3 h [2, 9] of 0.56 ± 0.1 %ID/g and a tissue uptake at 3 h ([2]; lung, without bsMAb, read-out: Tissue uptake, Lung) of 0.31 ± 0.14 %ID/g. The tissue uptake at 24 h [2, 9] was 0.18 ± 0.07 %ID/g, the tissue uptake at 48 h [2, 9] was 0.14 ± 0.03 %ID/g and the tissue uptake at 3 h [2, 10] was 0.68 ± 0.45 %ID/g. For the same compound, the tissue uptake at 3 h ([2]; small intestine, without bsMAb, read-out: Tissue uptake, Sm. Int.) was 0.2 ± 0.1 %ID/g, the tissue uptake at 24 h [2, 10] was 0.22 ± 0.09 %ID/g and the tissue uptake at 48 h [2, 10] was 0.12 ± 0.03 %ID/g. It also gave a tissue uptake at 3 h [2, 11] of 0.37 ± 0.11 %ID/g, a tissue uptake at 3 h ([2]; spleen, without bsMAb, read-out: Tissue uptake, Spleen) of 0.22 ± 0.07 %ID/g and a tissue uptake at 24 h [2, 11] of 0.66 ± 0.89 %ID/g. The tissue uptake at 48 h [2, 11] was 0.25 ± 0.07 %ID/g, the tissue uptake at 3 h [2, 12] was 0.41 ± 0.33 %ID/g and the tissue uptake at 3 h ([2]; stomach, without bsMAb, read-out: Tissue uptake, Stomach) was 0.11 ± 0.06 %ID/g. For the same compound, the tissue uptake at 24 h [2, 12] was 0.2 ± 0.12 %ID/g, the tissue uptake at 48 h [2, 12] was 0.07 ± 0.01 %ID/g and the tissue uptake at 3 h [2, 13] was 28.3 ± 4.03 %ID/g. For the same compound, the tissue uptake at 3 h ([2]; tumor, without bsMAb, read-out: Tissue uptake, Tumor) was 0.37 ± 0.09 %ID/g, the tissue uptake at 24 h [2, 13] was 15.4 ± 1.18 %ID/g and the tissue uptake at 48 h [2, 13] was 9.69 ± 1.97 %ID/g.

In the case of NC(=O)[C@@H](CCCCNC(=O)CNC(=O)CCC(=O)NCCc1c[nH]cn1)NC(=O)[C@@H](CCC(=O)O)NC(=O)[C@@H](CCCCNC(=O)CNC(=O)CCC(=O)NCCc1c[nH]cn1)NC(=O)[C@@H](Cc1ccc(O)cc1)NC(=O)CN1CCN(CC(=O)O)CCN(CC(=O)O)CCN(CC(=O)O)CC1 [^213Bi-IMP288, metal not drawn] ({DOTA}-[dY][dK]([Gly-Suc-NH(2-(imidazol-4-yl)ethyl)])[dE][dK]([Gly-Suc-NH(2-(imidazol-4-yl)ethyl)])-NH2), the “Tumor targeting relative to ^177Lu-IMP288” value (s.c. LS174T xenografts) is reported as “comparable”, the tissue uptake at 0.25 h (in vivo) is reported as 9.3 ± 2 %ID/g and the Tumor growth (LS174T tumors) is reported as “significantly inhibited”.

For DLIEEAASRIVDAVIEQVKAAGAY [Ht-31], the PKA isoform preference (PKA) is listed as “greater affinity for the RII isoform”.

In the case of FEELAWKIAKMIWSDVFQQC [PV-38], the PKA isoform preference (PKA) is listed as “higher affinity for RI”.

IMP288 (peptide) showed an IQ (TF2 (human)) of 0.8 nM.

Work on “IMP-245: di-HSG-based peptide effector labeled with ^99mTc (FKYKK; not fully specified; also: labelled with 99mTc)” yielded a Tumor uptake ([3]; 0.5 h post-peptide injection) of 22±3 % ID/g, a Tumor uptake ([3]; 1 h post-peptide injection) of 30±14 % ID/g and a Tumor uptake ([3]; 4 h post-peptide injection) of 25±4 % ID/g. It also gave a Tumor uptake ([3]; 24 h post-peptide injection) of 16±3 % ID/g.

In the case of LEQYANQLADQIIKEATE [RIAD], the PKA isoform preference (PKA) is given as “higher affinity for RI”.

In the case of “PEDAELVRLSKRDVENAVLKAVQQY [AKAP7δ-L308D-pep]”, the “Affinity for the RII DDD sequence” value [4] is given as “particularly high affinities”.

In the case of “PEDAELVRLSKRLVENAVLKAVQQY [AKAP7δ-wt-pep]”, the “Affinity for the RII DDD sequence” value [4] is listed as “particularly high affinities”.

For “PEDAELVRTSKRLVENAVLKAVQQY [AKAP7δ-L304T-pep]”, the “Affinity for the RII DDD sequence” value [4] is listed as “particularly high affinities”.

In the case of QIEYLAKQIVDNAIQQA [AKAP-IS], the Kd (RIIα dimers) is listed as 0.4 nM and the “Affinity for the RII DDD sequence” value [4] is listed as “particularly high affinities”.

In the case of QIEYVAKQIVDYAIHQA [SuperAKAP-IS], the “Selectivity for the RII isoform of PKA compared with the RI isoform” value (RII isoform of PKA) is listed as “five order of magnitude higher”.
